Assay [1] deals with hGPRC5D (UniProt Q9NZD1). Nature of the assay: flow cytometry on NCI-H929 cells; negative control (EC50 '/': curve could not be fitted). (A flow cytometer gives signals particle by particle.)
Assay [2] concerns the target hGPRC5D (UniProt Q9NZD1). The assay can be described thus: flow cytometry on MM.1S cells; negative control (EC50 '/': curve could not be fitted).
Assay [3] concerns the target hGPRC5D (UniProt Q9NZD1). Nature of the assay: flow cytometry on RPMI-8226 cells; negative control (EC50 '/': curve could not be fitted).

Sequence of hGPRC5D (Q9NZD1 whole entry): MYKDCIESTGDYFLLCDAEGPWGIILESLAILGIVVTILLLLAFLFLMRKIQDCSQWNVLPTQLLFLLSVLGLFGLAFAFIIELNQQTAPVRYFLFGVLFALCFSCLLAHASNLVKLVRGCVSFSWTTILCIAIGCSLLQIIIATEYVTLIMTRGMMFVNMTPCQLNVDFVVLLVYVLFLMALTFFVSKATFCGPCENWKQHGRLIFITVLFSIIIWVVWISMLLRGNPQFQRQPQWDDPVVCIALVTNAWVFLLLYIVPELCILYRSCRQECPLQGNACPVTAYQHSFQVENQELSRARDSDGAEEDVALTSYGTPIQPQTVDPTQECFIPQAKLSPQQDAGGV

Consider “hIgG1 monoclonal antibody (Biointron, Cat. No. B117901)”, for which the Top(MFI) is 4180 with hGPRC5D [1], 6770 in the assay with hGPRC5D [2] and 3860 in the assay with hGPRC5D [3].

Values taken from patent US20260226168A1.
